± gives the standard deviation.

The data set is described as follows: protein stability index of a GFP-peptide fusion (GPS, HEK-293T) (PSI 1-6); higher = more stable.
Where [1] appears, read: treatment: DMSO, c terminus: a fixed tail appended.
Where [2] appears, read: treatment: MLN4924 1 uM, 8 h, c terminus: a fixed tail appended.
[3] abbreviates: treatment: DMSO, c terminus: native.
Setting [4] is: treatment: MLN4924 1 uM, 8 h, c terminus: native.
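Further: 24-mer peptide tiles fused after GFP, lentivirally expressed, FACS-sorted into six equal bins by GFP/DsRed ratio, decoded by Illumina sequencing, PSI is the read-weighted mean bin number.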

For the sequence PPPPHPYNPHPGFPELGYSYGGGS [DVL3], the protein stability index turned out to be 3.4 ± 0.32 under setting [1] and 3.6 ± 0.32 under setting [2].

For NEYFFDRNRPSFDAILYYYQSGGR [KCNA3], the protein stability index reads like this: under setting [1], 2.34 ± 0.3; under setting [2], 2.42 ± 0.18.

With KTKTSEYPIIFVYYLRKGKKINSN [SPANXN3], the protein stability index under setting [1] turned out to be 2.37 ± 0.59 and the protein stability index under setting [2] came to 2.01 ± 0.49.

As to IEITFSYWDGSGHRRTVKMRKGNT [FAM50A], the protein stability index runs as follows: under setting [1], 2.27 ± 0.25; under setting [2], 2.19 ± 0.18.

TEGVTQLKLTVVEDVTVGRRQAVA [ZFYVE21]: the protein stability index amounted to 4.07 ± 0.18 under setting [1] and 4.12 ± 0.19 under setting [2].

Regarding YQNHKITQLKIENNPFAKGFRGSD [TBX5], the protein stability index amounted to 2.96 ± 0.5 under setting [1] and 3.55 ± 0.61 under setting [2].

Take LAGGKLILSLEGGYNLRALAEGVS [HDAC6]: the protein stability index under setting [1] amounted to 2.99 ± 0.76 and the protein stability index under setting [2] amounted to 2.31 ± 0.47.

For FDPIVLLPCDLPKVVSRAENLSVP [LPCAT4], the protein stability index was found to be 2.8 ± 0.2 under setting [1] and 2.87 ± 0.3 under setting [2].

On to PPFWDEDQHRLYKQIKAGAYDFPS [CAMK2A], for which the protein stability index reads like this: under setting [1], 3.4 ± 0.28; under setting [2], 3.54 ± 0.29.

Take MTEMSFLSSEVLVGDLMSPFDQSG [ATF4]: the protein stability index worked out at 3.37 ± 0.1 under setting [1] and 3.24 ± 0.37 under setting [2].

GFEFSVPFTEMKLRPRNFRSPAGG [TNXB] gave a protein stability index under setting [2] of 3.66 ± 0.66.

As for TLSWYFLLCVNYFFYGETVTDYFF [CDS2], the protein stability index came to 3.35 ± 0.64 under setting [1] and 3.48 ± 0.26 under setting [2].

On to PDDSTSEDGIHTLTCALMLLNTDL [PSD2], for which the protein stability index by setting is: under setting [1], 3.12 ± 0.27; under setting [2], 3.1 ± 0.34.

Consider APAGASYNPSFEDHQTLLSAAHEV [NOP53], for which the protein stability index runs as follows: under setting [1], 4.73 ± 0.14; under setting [2], 4.71 ± 0.14.

YSGPPSPHGTLRVCTISSTGPLQP [PKD2L1]: the protein stability index by setting is: under setting [1], 2.65 ± 0.57; under setting [2], 2.83 ± 0.3.

Take TYSGKAADVWSLGVMLYTLLVGRY [TRIB1]: the protein stability index was 2.42 ± 0.36 under setting [1] and 2.21 ± 0.042 under setting [2].

As to IIHETAVGMNFLHCMAPPLLHLDL [RIPK4], the protein stability index runs as follows: under setting [1], 2.6 ± 0.64; under setting [2], 2.57 ± 0.85.

For the sequence SASLEVVKKDHVALQVPRGKEDST [CBY2], the protein stability index reads like this: under setting [1], 5.4 ± 0.16; under setting [2], 5.35 ± 0.23.

For the sequence RSLFIDRTIVKGYNENVYTEDGKL [MED27], the protein stability index by setting is: under setting [1], 4.07 ± 0.25; under setting [2], 4.12 ± 0.21.

HPPPSTPIKLEEGDGCAREYLLP [ADD1] registered a protein stability index under setting [3] of 5.13 ± 0.2 and a protein stability index under setting [4] of 4.81 ± 0.09.

For the sequence FALQSDLDQPAFQQLVSFSESGSL [ISL2], the protein stability index is, setting by setting: under setting [1], 2.91 ± 0.37; under setting [2], 3.03 ± 0.3.

As to KTYHYLYLAMLERFQDGDNILEKE [FEM1B], the protein stability index is, setting by setting: under setting [1], 2.03 ± 0.37; under setting [2], 2.35 ± 0.2.

Regarding AKDYADSIHAIFVETSAKNAININ [RAB22A], the protein stability index was 2.59 ± 0.27 under setting [1] and 2.48 ± 0.34 under setting [2].

For VMAYDRYMAICKPLHELITMNRRV [OR4A15], the protein stability index came out at 2.25 ± 0.35 under setting [1] and 2.23 ± 0.37 under setting [2].

On to TLRQKTVDWRRVSRLQEDPEGTEN [SLA], for which the protein stability index reads like this: under setting [1], 4.87 ± 0.27; under setting [2], 4.79 ± 0.52.

PSAAQTLRSFCAWQRGLNTPEDSD [ADAMTS4]: the protein stability index is 4.29 ± 0.25 under setting [1] and 4.53 ± 0.17 under setting [2].

With TRKHHCRRCGKCFCDRCCSQKVPL [ZFYVE21], the protein stability index is 3.31 ± 0.27 under setting [1] and 3.58 ± 0.19 under setting [2].

As for PKKGPAPSLSPGSSCVKYLIFLSN [TSPAN10], the protein stability index reads like this: under setting [1], 2.59 ± 0.64; under setting [2], 2.43 ± 0.21.

Sequence CLRVGMLKEGVRLDRVRGGRQKYK [ESRRA] registered a protein stability index under setting [1] of 3.12 ± 0.24 and a protein stability index under setting [2] of 3.42 ± 0.46.

On to KSENARLVVQIDNAKLAADDFRTK [KRT33B], for which the protein stability index was 4.4 ± 0.41 under setting [1] and 4.25 ± 0.27 under setting [2].

Turning to DILPRWAIIGWLLTTCTSNVAASN [INTS3], the protein stability index under setting [1] worked out at 3.24 ± 0.47 and the protein stability index under setting [2] is 3.08 ± 0.51.

With THLLKQGRSSMGTGLSGGKRPSQE [CRY1], the protein stability index is, setting by setting: under setting [1], 4.35 ± 0.18; under setting [2], 4.53 ± 0.33.

On to DTAHDFRAKCRNMEHALREKAKAF [TRIM35], for which the protein stability index under setting [1] came to 3.18 ± 0.25 and the protein stability index under setting [2] is 3.43 ± 0.23.

Take LGEEWSLHKIYLCQSGYFSSMFSG [GMCL1]: the protein stability index under setting [1] worked out at 2.72 ± 1.1 and the protein stability index under setting [2] was found to be 3.4 ± 0.97.

For SCVIPLRHGGLSLVQTTDFFYPLV [SEPHS2], the protein stability index is, setting by setting: under setting [1], 2.42 ± 0.34; under setting [2], 2.31 ± 0.45.

As for RWNKVKMVVSREEVELAYQEAMFN [SEPHS2], the protein stability index reads like this: under setting [1], 2.62 ± 0.21; under setting [2], 2.66 ± 0.29.

As to HLRNKTEDLEATSEHFKTTSQKVA [VAMP8], the protein stability index by setting is: under setting [1], 5.01 ± 0.24; under setting [2], 5.07 ± 0.14.

For the sequence VTFAAMQAQQGRSSLVWLFSQLYL [MCOLN1], the protein stability index under setting [1] stood at 3.03 ± 0.67 and the protein stability index under setting [2] was found to be 2.75 ± 0.47.

Regarding MQPEGLKCRMEESNAERGTAEPFP [CBY2], the protein stability index amounted to 4.88 ± 0.3 under setting [1] and 4.69 ± 0.27 under setting [2].

For the sequence KRFEKQLTQIDGTLSTIEFQREAL [CHMP4C], the protein stability index was 3.98 ± 0.17 under setting [1] and 4 ± 0.27 under setting [2].

Regarding RGPPRGLRGGRGGSGGTRGPPSRG [RBMX], the protein stability index by setting is: under setting [1], 5.18 ± 0.2; under setting [2], 4.92 ± 0.33.

Take NVPPIPVETLVKKKIPIISNAMLV [ACSBG2]: the protein stability index is, setting by setting: under setting [1], 2.4 ± 0.21; under setting [2], 2.38 ± 0.27.

With ASTSLPTKPTQGASSASEPQGLFV [CLPTM1], the protein stability index worked out at 4.42 ± 0.12 under setting [1] and 4.29 ± 0.48 under setting [2].

For the sequence VTCKDKKGYTPLHAAASNGQINVV [ANKRD44], the protein stability index amounted to 3.34 ± 0.12 under setting [1] and 3.24 ± 0.27 under setting [2].

Turning to LTQTMHDLAGLGSETPKSQVGTLL [CDC25B], the protein stability index runs as follows: under setting [1], 3.39 ± 0.42; under setting [2], 3.62 ± 0.22.

Consider GSMVEIAKQLQAVKRKIRDESLCP [TRIM39], for which the protein stability index is, setting by setting: under setting [1], 3.09 ± 0.24; under setting [2], 3.15 ± 0.24.

Consider AQTPPRPGPPSAPPPPPKEGHQEG [SCNN1D], for which the protein stability index came out at 5.73 ± 0.27 under setting [1] and 5.08 ± 0.72 under setting [2].

Take LASDKTSAGNAPLNEEINIASSDS [C18orf25]: the protein stability index reads like this: under setting [1], 5.48 ± 0.17; under setting [2], 5.46 ± 0.16.

Regarding HTPTPFKNALEKYGPLKPLPQTPH [MYBL2], the protein stability index came to 3.56 ± 0.28 under setting [1] and 3.91 ± 0.35 under setting [2].

For the sequence AGSVFGGGFGGGVGGGFGGGFGGG [KRT15], the protein stability index reads like this: under setting [1], 2.56 ± 0.23; under setting [2], 2.65 ± 0.21.

Regarding ACRANVKSGAIMSALSDTEIQREI [PPFIA4], the protein stability index by setting is: under setting [1], 3.41 ± 0.29; under setting [2], 3.57 ± 0.47.

Consider RSIRQYYKKGIIRKPDISQRLVYQ [SPDEF], for which the protein stability index under setting [1] stood at 2.84 ± 0.24 and the protein stability index under setting [2] was 2.97 ± 0.42.

Consider NYQAHQSRVTMILFVLELEWVLST [WDFY2], for which the protein stability index is, setting by setting: under setting [1], 3.1 ± 0.08; under setting [2], 2.89 ± 0.67.

FYTCASHVTVVILFFVPCIFLYAR [OR4A15]: the protein stability index by setting is: under setting [1], 3.13 ± 0.35; under setting [2], 3.08 ± 0.26.

Consider AGGQDMADSMLMQGSRGLTDQAIF [HDAC6], for which the protein stability index reads like this: under setting [1], 3.73 ± 0.054; under setting [2], 3.86 ± 0.38.

In the case of NYPKGGLLDSMCPASTPSVLSSEQ [ETS2], the protein stability index by setting is: under setting [1], 4.64 ± 0.26; under setting [2], 4.45 ± 0.15.

Take SGTPKRYSLELGKAIKQKLWEALC [C22orf31]: the protein stability index runs as follows: under setting [1], 2.9 ± 0.67; under setting [2], 2.9 ± 0.37.

Take FHVNLGKESRAQTLQNGRRHIHHL [BRF1]: the protein stability index reads like this: under setting [1], 2.66 ± 0.34; under setting [2], 2.93 ± 0.41.

In turn, YPENDWDTAAPVPQKDLEIFKNF [PRKX] displayed a protein stability index under setting [3] of 5.08 ± 0.33 and a protein stability index under setting [4] of 5.33 ± 0.25.

Consider VINQADVRNNRSIIKQLKDVFERD [PLD5], for which the protein stability index runs as follows: under setting [1], 3.2 ± 0.2; under setting [2], 3.29 ± 0.35.

As to FSGGKSGGNKKSDGVKESSESTNT [CAMK2A], the protein stability index by setting is: under setting [1], 5.25 ± 0.2; under setting [2], 5.36 ± 0.34.

For the sequence GGEMSPQVETSIEGTIPFSKPVKV [INTS4], the protein stability index under setting [1] was determined as 4.77 ± 0.2 and the protein stability index under setting [2] was 4.76 ± 0.17.

As to SAMALVKHSVLLSASRKSAEQLRI [WEE1], the protein stability index under setting [1] turned out to be 2.06 ± 0.093 and the protein stability index under setting [2] was determined as 2.16 ± 0.13.

As for KNKPKMNYEKLSRGLRYYYDKNII [ETS1], the protein stability index came to 2.71 ± 1.1 under setting [1] and 2.17 ± 0.28 under setting [2].

In the case of QYYDDEKKTWKILTIMPYNSAHHC [KLHL14], the protein stability index reads like this: under setting [1], 2.56 ± 0.43; under setting [2], 2.59 ± 0.42.

In the case of TVQEAATSRRARASKKTAQPWVEV [MFSD9], the protein stability index was found to be 3.22 ± 0.14 under setting [1] and 3.1 ± 0.25 under setting [2].

As to YGTKKFMQELTEMLGFRPYRFYFY [SLC6A17], the protein stability index is, setting by setting: under setting [1], 2.29 ± 0.95; under setting [2], 2.28 ± 0.48.

In the case of EGSLCAAHLPKAQLSGYAVEATRN [FBF1], the protein stability index under setting [1] was found to be 4.01 ± 0.17 and the protein stability index under setting [2] was 3.99 ± 0.087.

Turning to ARRYAGPLHHQTQRFRLDNLLNMA [ELAVL3], the protein stability index amounted to 2.78 ± 0.35 under setting [1] and 2.75 ± 0.31 under setting [2].

As for KEEEEKDHNEAMKPEEPPQNLLRE [PCMTD1], the protein stability index is, setting by setting: under setting [1], 5.39 ± 0.77; under setting [2], 5.88 ± 0.09.

On to LLFSDKNVNSNLITWNRVVLLHGP [TRIP13], for which the protein stability index runs as follows: under setting [1], 2.91 ± 0.79; under setting [2], 2.28 ± 0.53.

LSASGPFESHDLLRKGFSCVKNEL [POMP]: the protein stability index is, setting by setting: under setting [1], 3.37 ± 0.053; under setting [2], 3.35 ± 0.43.

These data come from the supplement of paper PMC10567573.
